Measurements reported in article PMC9482650, “Quantitative fragmentomics allow affinity mapping of interactomes” (Nature Communications, 2022).

Columns and labels:
Test in all cases: holdup assay
Set-up in all cases: key: below the threshold = too weak to quantify, mostly under pKd 3.1 to 4
HTRA1, Q92743 = molecular target: HTRA1, Q92743
MPP7, Q5T2T1 = molecular target: T1, MPP7, Q5T2T1
T1 sequence (Q5T2T1 134-230, limits assumed, looked up): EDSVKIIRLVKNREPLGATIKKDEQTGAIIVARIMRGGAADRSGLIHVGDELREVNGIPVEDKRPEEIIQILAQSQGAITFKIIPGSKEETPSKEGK

IL16_3, Q14005 = molecular target: IL16_3, Q14005
RHPN1, Q8TCX5 = molecular target: T2, RHPN1, Q8TCX5
T2 sequence (Q8TCX5 508-602, limits assumed, looked up): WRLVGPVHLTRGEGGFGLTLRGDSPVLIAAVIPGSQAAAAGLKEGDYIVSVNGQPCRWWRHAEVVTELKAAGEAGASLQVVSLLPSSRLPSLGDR

PDZRN3_1, Q9UPQ7 = molecular target: T3, PDZRN3_1, Q9UPQ7
T3 sequence (Q9UPQ7 244-349, limits assumed, looked up): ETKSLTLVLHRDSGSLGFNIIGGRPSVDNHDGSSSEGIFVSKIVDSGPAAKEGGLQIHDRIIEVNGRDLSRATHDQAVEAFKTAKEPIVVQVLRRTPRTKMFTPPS

NHERF3_3, Q5T2W1 = molecular target: T4, NHERF3_3, Q5T2W1
T4 sequence (Q5T2W1 238-333, limits assumed, looked up): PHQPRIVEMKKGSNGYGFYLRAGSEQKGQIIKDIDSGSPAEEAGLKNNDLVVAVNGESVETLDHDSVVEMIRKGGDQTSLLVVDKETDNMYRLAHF

MAGI3_2, Q5TCQ9 = molecular target: MAGI3_2, Q5TCQ9
MAGI2_2, Q86UL8 = molecular target: MAGI2_2, Q86UL8
Inadl_3, Q8NI35 = molecular target: Inadl_3, Q8NI35
RAPGEF6, Q8TEU7 = molecular target: T5, RAPGEF6, Q8TEU7
T5 sequence (Q8TEU7 525-625, limits assumed, looked up): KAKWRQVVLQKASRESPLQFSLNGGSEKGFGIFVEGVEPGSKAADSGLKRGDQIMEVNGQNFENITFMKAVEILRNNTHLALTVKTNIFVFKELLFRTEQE

PTPN3, P26045 = molecular target: PTPN3, P26045
TJP1_3, Q07157 = molecular target: TJP1_3, Q07157
APBA1_1, Q02410 = molecular target: T6, APBA1_1, Q02410
T6 sequence (Q02410 651-752, limits assumed, looked up): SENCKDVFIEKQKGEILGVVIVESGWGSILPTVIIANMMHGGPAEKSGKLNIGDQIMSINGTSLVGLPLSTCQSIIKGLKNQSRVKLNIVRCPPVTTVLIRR

Inadl_5, Q8NI35 = molecular target: Inadl_5, Q8NI35
RADIL, Q96JH8 = molecular target: T7, RADIL, Q96JH8
T7 sequence (Q96JH8 971-1071, limits assumed, looked up): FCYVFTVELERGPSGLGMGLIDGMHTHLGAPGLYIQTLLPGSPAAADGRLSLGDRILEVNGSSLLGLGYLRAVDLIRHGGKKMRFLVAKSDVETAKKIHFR

FRMPD3, Q5JV73 = molecular target: FRMPD3, Q5JV73
ARHGEF12, Q9NZN5-2 = molecular target: ARHGEF12, Q9NZN5-2
SNTA1, Q13424 = molecular target: T8, SNTA1, Q13424
T8 sequence (Q13424 82-180, limits assumed, looked up): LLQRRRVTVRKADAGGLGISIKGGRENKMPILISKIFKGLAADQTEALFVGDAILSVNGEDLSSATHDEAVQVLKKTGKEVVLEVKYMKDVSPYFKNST

PDLIM1, O00151 = molecular target: PDLIM1, O00151
GRIP1_2, Q9Y3R0 = molecular target: T9, GRIP1_2, Q9Y3R0
T9 sequence (Q9Y3R0 145-248, limits assumed, looked up): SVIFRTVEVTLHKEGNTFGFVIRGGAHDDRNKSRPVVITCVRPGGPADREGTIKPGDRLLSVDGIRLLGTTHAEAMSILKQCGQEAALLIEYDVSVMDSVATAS

DLG5_1, Q8TDM6 = molecular target: DLG5_1, Q8TDM6
LNX1_2, Q8TBB1 = molecular target: LNX1_2, Q8TBB1
IL16_1, Q14005 = molecular target: IL16_1, Q14005
MAST1, Q9Y2H9 = molecular target: MAST1, Q9Y2H9
GRID2IP_2, A4D2P6 = molecular target: GRID2IP_2, A4D2P6
ARHGEF11, O15085 = molecular target: T10, ARHGEF11, O15085
T10 sequence (O15085 42-136, limits assumed, looked up): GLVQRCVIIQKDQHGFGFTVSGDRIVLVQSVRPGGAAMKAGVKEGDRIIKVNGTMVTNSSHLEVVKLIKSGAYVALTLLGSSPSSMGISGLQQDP

SNTG2, Q9NY99 = molecular target: T11, SNTG2, Q9NY99
T11 sequence (Q9NY99 68-166, limits assumed, looked up): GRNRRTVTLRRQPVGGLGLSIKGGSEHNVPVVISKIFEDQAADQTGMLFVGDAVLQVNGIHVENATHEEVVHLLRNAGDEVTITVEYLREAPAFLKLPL

[1] = plain residues with an end cap or a label only (N-terminal biotin on a linker: ttds)
[2] = plain residues with an end cap or a label only (N-terminal biotin on a linker: ado-ado)

Sequence of PTPN3, P26045 (P26045 505-587): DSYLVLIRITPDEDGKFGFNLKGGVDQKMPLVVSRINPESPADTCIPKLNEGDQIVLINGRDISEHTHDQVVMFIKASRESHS
Sequence of TJP1_3, Q07157 (Q07157 416-512): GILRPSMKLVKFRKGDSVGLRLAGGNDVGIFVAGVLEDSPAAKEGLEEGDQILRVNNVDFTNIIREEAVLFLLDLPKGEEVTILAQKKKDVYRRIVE
Sequence of GRID2IP_2, A4D2P6 (A4D2P6 272-370): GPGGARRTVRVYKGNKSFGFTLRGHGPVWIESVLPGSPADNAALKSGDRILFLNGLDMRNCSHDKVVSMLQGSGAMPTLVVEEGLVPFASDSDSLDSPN
Sequence of ARHGEF12, Q9NZN5-2 (Q9NZN5 other isoform, or with tags, fused parts or gaps): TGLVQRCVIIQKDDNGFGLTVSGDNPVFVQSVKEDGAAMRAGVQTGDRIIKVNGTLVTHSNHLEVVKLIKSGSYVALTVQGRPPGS
Sequence of PDLIM1, O00151 (O00151 1-87): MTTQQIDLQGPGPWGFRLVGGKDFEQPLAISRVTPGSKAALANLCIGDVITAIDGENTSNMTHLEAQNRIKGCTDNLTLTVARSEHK
Sequence of FRMPD3, Q5JV73 (Q5JV73 12-100): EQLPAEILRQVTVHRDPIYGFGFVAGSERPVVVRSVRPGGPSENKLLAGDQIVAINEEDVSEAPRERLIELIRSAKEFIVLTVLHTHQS
Sequence of DLG5_1, Q8TDM6 (Q8TDM6 617-713): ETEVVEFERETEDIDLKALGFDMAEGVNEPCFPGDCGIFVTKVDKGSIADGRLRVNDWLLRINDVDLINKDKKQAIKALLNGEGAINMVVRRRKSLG
Sequence of Inadl_3, Q8NI35 (Q8NI35 359-469): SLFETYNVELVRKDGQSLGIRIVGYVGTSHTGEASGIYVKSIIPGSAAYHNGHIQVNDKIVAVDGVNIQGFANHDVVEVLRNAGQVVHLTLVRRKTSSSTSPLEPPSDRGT
Sequence of MAST1, Q9Y2H9 (Q9Y2H9 962-1065): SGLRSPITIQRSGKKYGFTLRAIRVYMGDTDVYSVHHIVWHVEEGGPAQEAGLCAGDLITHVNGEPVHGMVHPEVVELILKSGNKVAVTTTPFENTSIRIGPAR
Sequence of IL16_1, Q14005 (Q14005 210-306): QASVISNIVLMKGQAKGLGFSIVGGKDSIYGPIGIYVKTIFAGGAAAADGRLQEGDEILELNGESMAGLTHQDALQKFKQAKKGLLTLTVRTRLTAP
Sequence of MAGI2_2, Q86UL8 (Q86UL8 410-522): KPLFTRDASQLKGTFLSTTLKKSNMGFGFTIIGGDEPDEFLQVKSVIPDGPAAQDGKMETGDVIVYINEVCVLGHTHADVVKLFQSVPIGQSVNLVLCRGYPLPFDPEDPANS
Sequence of IL16_3, Q14005 (Q14005 1107-1207): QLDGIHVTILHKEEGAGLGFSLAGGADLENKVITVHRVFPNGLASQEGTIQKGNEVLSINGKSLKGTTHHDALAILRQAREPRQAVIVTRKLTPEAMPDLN
Sequence of Inadl_5, Q8NI35 (Q8NI35 673-780): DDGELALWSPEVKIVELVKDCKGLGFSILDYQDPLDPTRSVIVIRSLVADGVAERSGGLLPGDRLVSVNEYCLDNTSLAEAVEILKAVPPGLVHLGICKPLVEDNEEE
Sequence of HTRA1, Q92743 (Q92743 360-477): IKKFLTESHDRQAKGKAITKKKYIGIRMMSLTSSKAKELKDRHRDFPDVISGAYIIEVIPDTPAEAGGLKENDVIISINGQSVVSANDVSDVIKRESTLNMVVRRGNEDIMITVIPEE
Sequence of LNX1_2, Q8TBB1 (Q8TBB1 371-470): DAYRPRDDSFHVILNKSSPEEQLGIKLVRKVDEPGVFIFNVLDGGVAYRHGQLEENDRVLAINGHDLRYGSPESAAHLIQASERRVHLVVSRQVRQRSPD
Sequence of MAGI3_2, Q5TCQ9 (Q5TCQ9 398-503): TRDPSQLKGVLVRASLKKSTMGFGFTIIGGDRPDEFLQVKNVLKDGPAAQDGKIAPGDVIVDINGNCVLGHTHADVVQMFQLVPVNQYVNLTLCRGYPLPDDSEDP

## NYWPGKETQL [SLCO1C1, Q9NYB5]
HTRA1, Q92743; [1]
  pKd: below the threshold
MPP7, Q5T2T1; [1]
  pKd: below the threshold
IL16_3, Q14005; [1]
  pKd: below the threshold
RHPN1, Q8TCX5; [1]
  pKd: 5.14
PDZRN3_1, Q9UPQ7; [1]
  pKd: 5.71
NHERF3_3, Q5T2W1; [1]
  pKd: below the threshold
MAGI3_2, Q5TCQ9; [1]
  pKd: 4.75
MAGI2_2, Q86UL8; [1]
  pKd: 4.52
Inadl_3, Q8NI35; [1]
  pKd: below the threshold
RAPGEF6, Q8TEU7; [1]
  pKd: below the threshold
PTPN3, P26045; [1]
  pKd: 5.42
TJP1_3, Q07157; [1]
  pKd: below the threshold
APBA1_1, Q02410; [1]
  pKd: below the threshold
Inadl_5, Q8NI35; [1]
  pKd: below the threshold
RADIL, Q96JH8; [1]
  pKd: below the threshold
FRMPD3, Q5JV73; [1]
  pKd: below the threshold
ARHGEF12, Q9NZN5-2; [1]
  pKd: 4.94
SNTA1, Q13424; [1]
  pKd: 5.51
PDLIM1, O00151; [1]
  pKd: 3.73
GRIP1_2, Q9Y3R0; [1]
  pKd: below the threshold
DLG5_1, Q8TDM6; [1]
  pKd: below the threshold
LNX1_2, Q8TBB1; [1]
  pKd: below the threshold
IL16_1, Q14005; [1]
  pKd: below the threshold
MAST1, Q9Y2H9; [1]
  pKd: 5.26
GRID2IP_2, A4D2P6; [1]
  pKd: 4.29
ARHGEF11, O15085; [1]
  pKd: 4.53
SNTG2, Q9NY99; [1]
  pKd: 5.28

## EDLTKNHDEL [RCN1, Q15293]
HTRA1, Q92743; [2]
  pKd: 3.5
MPP7, Q5T2T1; [2]
  pKd: below the threshold
IL16_3, Q14005; [2]
  pKd: below the threshold
RHPN1, Q8TCX5; [2]
  pKd: 3.79
PDZRN3_1, Q9UPQ7; [2]
  pKd: 3.65
NHERF3_3, Q5T2W1; [2]
  pKd: below the threshold
MAGI3_2, Q5TCQ9; [2]
  pKd: below the threshold
MAGI2_2, Q86UL8; [2]
  pKd: below the threshold
Inadl_3, Q8NI35; [2]
  pKd: below the threshold
RAPGEF6, Q8TEU7; [2]
  pKd: below the threshold
PTPN3, P26045; [2]
  pKd: below the threshold
TJP1_3, Q07157; [2]
  pKd: 3.48
APBA1_1, Q02410; [2]
  pKd: below the threshold
Inadl_5, Q8NI35; [2]
  pKd: below the threshold
RADIL, Q96JH8; [2]
  pKd: 3.61
FRMPD3, Q5JV73; [2]
  pKd: below the threshold
ARHGEF12, Q9NZN5-2; [2]
  pKd: 3.51
SNTA1, Q13424; [2]
  pKd: 3.5
PDLIM1, O00151; [2]
  pKd: 3.52
GRIP1_2, Q9Y3R0; [2]
  pKd: below the threshold
DLG5_1, Q8TDM6; [2]
  pKd: 3.49
LNX1_2, Q8TBB1; [2]
  pKd: 3.47
IL16_1, Q14005; [2]
  pKd: below the threshold
MAST1, Q9Y2H9; [2]
  pKd: 3.91
GRID2IP_2, A4D2P6; [2]
  pKd: 3.48
ARHGEF11, O15085; [2]
  pKd: 3.79
SNTG2, Q9NY99; [2]
  pKd: below the threshold

## LDSQIQETSI [MAP4, P27816]
HTRA1, Q92743; [1]
  pKd: below the threshold
MPP7, Q5T2T1; [1]
  pKd: below the threshold
IL16_3, Q14005; [1]
  pKd: below the threshold
RHPN1, Q8TCX5; [1]
  pKd: 4.94
PDZRN3_1, Q9UPQ7; [1]
  pKd: 4.55
NHERF3_3, Q5T2W1; [1]
  pKd: below the threshold
MAGI3_2, Q5TCQ9; [1]
  pKd: 3.57
MAGI2_2, Q86UL8; [1]
  pKd: below the threshold
Inadl_3, Q8NI35; [1]
  pKd: below the threshold
RAPGEF6, Q8TEU7; [1]
  pKd: below the threshold
PTPN3, P26045; [1]
  pKd: 4.92
TJP1_3, Q07157; [1]
  pKd: below the threshold
APBA1_1, Q02410; [1]
  pKd: below the threshold
Inadl_5, Q8NI35; [1]
  pKd: below the threshold
RADIL, Q96JH8; [1]
  pKd: below the threshold
FRMPD3, Q5JV73; [1]
  pKd: below the threshold
ARHGEF12, Q9NZN5-2; [1]
  pKd: 4.33
SNTA1, Q13424; [1]
  pKd: 4.8
PDLIM1, O00151; [1]
  pKd: below the threshold
GRIP1_2, Q9Y3R0; [1]
  pKd: below the threshold
DLG5_1, Q8TDM6; [1]
  pKd: below the threshold
LNX1_2, Q8TBB1; [1]
  pKd: below the threshold
IL16_1, Q14005; [1]
  pKd: 3.49
MAST1, Q9Y2H9; [1]
  pKd: 4.56
GRID2IP_2, A4D2P6; [1]
  pKd: 4.29
ARHGEF11, O15085; [1]
  pKd: below the threshold
SNTG2, Q9NY99; [1]
  pKd: 5.22

## TEEEVQDTRL [CFTR, P13569]
HTRA1, Q92743; [1]
  pKd: below the threshold
MPP7, Q5T2T1; [1]
  pKd: below the threshold
IL16_3, Q14005; [1]
  pKd: below the threshold
RHPN1, Q8TCX5; [1]
  pKd: 4.12
PDZRN3_1, Q9UPQ7; [1]
  pKd: 4.01
NHERF3_3, Q5T2W1; [1]
  pKd: 3.79
MAGI3_2, Q5TCQ9; [1]
  pKd: below the threshold
MAGI2_2, Q86UL8; [1]
  pKd: below the threshold
Inadl_3, Q8NI35; [1]
  pKd: below the threshold
RAPGEF6, Q8TEU7; [1]
  pKd: below the threshold
PTPN3, P26045; [1]
  pKd: 4.21
TJP1_3, Q07157; [1]
  pKd: below the threshold
APBA1_1, Q02410; [1]
  pKd: below the threshold
Inadl_5, Q8NI35; [1]
  pKd: below the threshold
RADIL, Q96JH8; [1]
  pKd: below the threshold
FRMPD3, Q5JV73; [1]
  pKd: below the threshold
ARHGEF12, Q9NZN5-2; [1]
  pKd: 3.52
SNTA1, Q13424; [1]
  pKd: 3.79
PDLIM1, O00151; [1]
  pKd: below the threshold
GRIP1_2, Q9Y3R0; [1]
  pKd: below the threshold
DLG5_1, Q8TDM6; [1]
  pKd: below the threshold
LNX1_2, Q8TBB1; [1]
  pKd: below the threshold
IL16_1, Q14005; [1]
  pKd: below the threshold
MAST1, Q9Y2H9; [1]
  pKd: 4.77
GRID2IP_2, A4D2P6; [1]
  pKd: below the threshold
ARHGEF11, O15085; [1]
  pKd: below the threshold
SNTG2, Q9NY99; [1]
  pKd: 4.37
